Results on 1 substance are retold here after publication PMC6820532.

The target in this assay is I-Aα^d chain fused to the human IgG1 Fc knob (non-zippered KIH-based BDC2.5mi/IA^g7, α chain) (mouse | human). The assay can be described thus: SDS stability on SDS-PAGE; 12% SDS-PAGE of the purified, co-expressed heterodimers; 0.83% SDS, left unboiled ('native') or boiled (100 °C for 5 min); fully denaturing with 20 mM β2-ME.

On to “BDC2.5mi peptide tethered to the I-Aβ^g7 chain fused to the human IgG1 Fc hole (non-zippered KIH-based BDC2.5mi/IA^g7, β chain) (Fc fusion)”, for which the stoichiometry N is 1.

The term stoichiometry N denotes a count of units in the complex or per binding partner.
